The record followed here is publication PMC2701625 (Biochemistry, 2009).

As usually defined, the stoichiometry N is a count of units in the complex or per binding partner.

The series deals with the molecule itself. As to the kind of experiment: cross-linking.

B1: GST-hHsp90-N520 (GST tagged human hsp90β truncation, residues 520-724) (domain or fragment)
chain: not shown
As to B1, the “stoichiometry N” value is 4.
